Reference: paper PMC12344693, “Human Milk Oligosaccharides Multivalently Presented on Defined Synthetic Neo-Glycoproteins Are Nanomolar Ligands of Tandem-Repeat Galectins” (Biomacromolecules, 2025)

biological target: full-length recombinant human galectin-8, N-terminal His-tagged (human) (UniProt O00214); experiment: ELISA; competitive: ASF (0.1 μM in PBS) immobilised on microtiter plates; serial dilutions of inhibitor in EPBS (PBS with 2 mM EDTA) incubated 2 h with a constant galectin concentration ([…] Gal-1, Gal-3, Gal-4; 0.5 μM Gal-8, Gal-9); residual galectin on ASF detected with anti-His-tag-HRP
Sequence (O00214 whole entry): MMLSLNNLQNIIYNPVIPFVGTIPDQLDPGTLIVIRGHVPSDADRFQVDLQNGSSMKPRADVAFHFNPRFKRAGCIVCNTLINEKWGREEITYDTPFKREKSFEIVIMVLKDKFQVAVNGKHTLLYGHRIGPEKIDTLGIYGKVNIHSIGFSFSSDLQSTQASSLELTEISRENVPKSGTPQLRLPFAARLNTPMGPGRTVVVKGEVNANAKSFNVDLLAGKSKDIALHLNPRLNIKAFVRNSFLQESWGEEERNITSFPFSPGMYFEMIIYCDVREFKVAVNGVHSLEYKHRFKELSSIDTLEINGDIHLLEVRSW

| Substance | IC50 [nM] |
| --- | --- |
| neo-glycoprotein NGP5 (LN2-Lac-HSA) (from UniProt P02768 25-609) | 200 |
| neo-glycoprotein NGP7 (LDN-Lac-HSA) (from UniProt P02768 25-609) | 400 |

Further lines, results first:

| IC50 [nM] | Substance |
| --- | --- |
| > 20000 | neo-glycoprotein NGP1 (Lac-HSA) (from UniProt P02768 25-609) |
| > 20000 | neo-glycoprotein NGP2 (LN2-HSA) (from UniProt P02768 25-609) |
| 600 | neo-glycoprotein NGP4 (LN1-LN2-HSA) (from UniProt P02768 25-609) |

biological target: His-tagged galectin-1 (C2S) (human); experiment: ELISA; competitive ELISA: ASF (0.1 µM in PBS) immobilised, serial dilutions of the neo-glycoprotein in EPBS incubated with […] Gal-1 or Gal-3 for 2 h; galectin left on ASF detected with anti-His-tag-HRP
Sequence (P09382 other isoform, or with tags, fused parts or gaps): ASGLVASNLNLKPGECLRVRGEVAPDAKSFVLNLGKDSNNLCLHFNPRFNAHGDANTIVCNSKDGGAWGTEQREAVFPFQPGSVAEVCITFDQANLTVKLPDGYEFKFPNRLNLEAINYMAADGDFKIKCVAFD

| IC50 [nM] | Substance |
| --- | --- |
| > 20000 | Neo-glycoprotein NGP1 (Lac-HSA) (from UniProt P02768 25-609) |
| > 20000 | Neo-glycoprotein NGP4 (LN1-LN2-HSA) (from UniProt P02768 25-609) |
| > 20000 | Neo-glycoprotein NGP8 (LDN-LN2-HSA) (from UniProt P02768 25-609) |

biological target: Asialofetuin (UniProt P12763); experiment: ELISA; direct ELISA: ASF immobilised on microtiter plates, serial dilution of the galectin in EPBS (PBS with 2 mM EDTA, 50 µL/well); otherwise as the competitive ELISA (anti-His-tag-HRP detection)
Sequence (P12763 19-359): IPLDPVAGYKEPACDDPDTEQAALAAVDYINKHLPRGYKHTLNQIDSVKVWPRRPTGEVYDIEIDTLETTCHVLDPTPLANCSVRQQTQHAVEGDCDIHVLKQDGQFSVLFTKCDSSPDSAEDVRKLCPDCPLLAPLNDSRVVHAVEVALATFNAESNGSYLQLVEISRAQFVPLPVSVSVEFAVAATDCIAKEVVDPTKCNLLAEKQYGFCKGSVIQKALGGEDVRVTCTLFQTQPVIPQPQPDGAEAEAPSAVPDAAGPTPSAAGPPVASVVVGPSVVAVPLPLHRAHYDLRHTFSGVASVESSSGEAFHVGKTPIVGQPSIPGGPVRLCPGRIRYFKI

| Kd [nM] | Substance |
| --- | --- |
| 320 | Gal-8-AVI-link (natural protein) |
| 180 | Gal-9-AVI-link (natural protein) |
